Experimental data from patent US11407811B2, “Fusion protein, preparation method therefor and use thereof” (JIANGSU RONGTAI BIOTECH CO., LTD., priority 2017, dated 2022).

Key:
tampon granuloma in rat = type: in vivo
Procedure: 40 parts of degreasing cotton, 30 mg for each part, were accurately weighed with an analytical balance and kneaded into balls having substantially the same shape and size, which were autoclaved at […] for 30 min and dried at 50° C. for further use.
40 male SD rats were randomly divided into 4 groups with 10 rats for each group. […] Rats were anesthetized with sodium pentobarbital (40 mg/kg) via intraperitoneal injection before administration. The abdominal coat was cut off, and the skin of middle of the lower abdomen was cut under sterile conditions. The incision was about 1 cm long and the subcutaneous tissue was expanded with a vascular clamp. A sterile dry tampon was subcutaneously implanted into one side of the groin, the incision was sutured, and an appropriate amount of amoxicillin was spread at the incision to prevent infection. After the surgery was finished, the groups were administered once by injection from the day of surgery (EDSM needed to be administered twice a day). The rats were sacrificed by cervical dislocation at the 24th hour after administration, the inguinal skin was cut, the tampon was taken out together with the surrounding granulation tissue and the surrounding tissue was removed. After drying for additional 48 h in an oven at 60° C., the weight was accurately weighed. The granuloma weight was calculated: granuloma weight (mg/100 g body weight)=net weight of granulation (mg)/rat body weight (100 g).

[1] = system: colon cancer cells HCT-116; test: MTT assay, proliferation of colon cancer cell HCT-116; type: cell-based
Procedure: (§1) The MTT assay was used to detect the inhibitory effect of the integrin blocker fusion protein obtained in Example 1 on the proliferation of various tumor cells, including melanoma cell B16F10, gastric cancer cell MGC-803, lung cancer cell A549, liver cancer cell Hep-G2, breast cancer cell MDA-MB-231, colon cancer cell HCT-116, human glioma U87, and cervical cancer cell Hela.
(§2) The tumor cells were cultured in a 5% CO2 incubator at 37° C. to a density of 90% or more, and collected by trypsinization. The cells were resuspended in the culture liquid and counted under a microscope. The cell concentration was adjusted to 3.0×10^4 cells/mL. The cell suspension was inoculated into a 96-well plate at 100 μL per well and cultured overnight in a 5% CO2 incubator at 37° C. […] After the cells were fully adhered, each dilution was added to a 96-well plate at 100 μL per well, respectively. […] 20 μL of 5 mg/mL MTT was added to each well of a 96-well plate, and incubation was continued for 4 hours. The medium was aspirated and 100 μL of DMSO per well were added to dissolve. The absorbance was measured at 570 nm with a microplate reader with a reference wavelength of 630 nm, and the proliferation inhibition (PI) was calculated. The formula is as follows: […]
(§3) where Ntest is the OD value of the test group and Ncontrol is the OD value of the blank control group.
(§4) The test was repeated 5 times independently. The results obtained from the test were calculated as mean±SD, and statistical t-test was performed. P<0.05 was considered as a significant difference, and P<0.01 was considered as an extremely significant difference.

[2] = system: neovascularization in premature rat retinopathy model; test: Neovascularization in premature rat retinopathy model (fluctuating oxygen-induced); type: in vivo
Procedure: A fluctuating oxygen-induced animal model was adopted, and newborn rats (within 12 hours) spontaneously delivered on the same day were randomly divided into three groups: an oxygen model group, an oxygen treatment group, and a normal control group. The oxygen model was subdivided into three model subgroups, which were placed in a semi-closed oxygen chamber made of plexiglass together with the treatment group. The medical oxygen was introduced into the chamber, and the oxygen concentration was adjusted to 80%±2% with an oxygen meter. After 24 hours, nitrogen gas was introduced into the oxygen chamber, and then the oxygen concentration was rapidly adjusted to 10%±2% and maintained for 24 hours. […] The oxygen concentration was monitored 8 times a day, and the ambient temperature in the chamber was controlled to 23° C.±2° C. […]
On day 14, after the rats was sacrificed with ether anesthesia, the eyeballs were removed and fixed in a 40 g/L paraformaldehyde solution for 24 hours. […] 10 sections were randomly selected from each eyeball to be stained with hematoxylin and eosin, and the nucleus of vascular endothelial cells that broke through the inner limiting membrane of the retina was counted (only the nucleus of vascular endothelial cells closely related to the inner limiting membrane were counted), and the average number of cells per section per eyeball was counted.

lung cancer cell A549 = test: MTT assay, proliferation of lung cancer cell A549; type: cell-based
Procedure: as §1, §2, §3, §4

B1: Protein II: IgG2-Fc linked to antiangiogenesis polypeptide EDSM-Y via a flexible linker; SEQ ID NO: 17 (protein)
chain: ERKCCVECPPCPAPPVAGPSVFLFPPKPKDTLMISRTPEVTCVVVDVSHEDPEVQFNWYVDGVEVHNAKTKPREEQFNSTFRVVSVLTVVHQDWLNGKEYKCKVSNKGLPAPIEKTISKTKGQPREPQVYTLPPSREEMTKNQVSLTCLVKGFYPSDISVEWESNGQPENNYKTTPPMLDSDGSFFLYSKLTVDKSRWQQGNVFSCSVMHEALHNHYTQKSLSLSPGKGGGGSGGGGSGGGGSFQPVLHLVALNSPLSGGMRGIRGADFQCFQQARAVGLAGTFRAGGGGRGD
- inhibition of tampon granuloma in rat (tampon granuloma in rat; effective dose of 64 mg/kg, compared with the blank model group): could significantly inhibit tampon granuloma in rat
- GranuLoma (mg)/Weight (100 g) (tampon granuloma in rat; rat, 64 mg/kg, injection): 0.23 ± 0.05 mg/100 g
- PI (%) (tampon granuloma in rat; rat, 64 mg/kg, injection): 55.77%
- Weight gain (tampon granuloma in rat; rat, in vivo, 64 mg/kg): 32.16 ± 10.13 g
- A570 nm/A630 nm ([1]; dose 1 μg/mL): 0.8310 ± 0.0394
- PI (%) ([1]; dose 1 μg/mL): 5.59%
- A570 nm/A630 nm ([1]; dose 2 μg/mL): 0.7925 ± 0.0415
- PI (%) ([1]; dose 2 μg/mL): 9.96%
- A570 nm/A630 nm ([1]; dose 4 μg/mL): 0.7555 ± 0.0283
- PI (%) ([1]; dose 4 μg/mL): 14.17%
- A570 nm/A630 nm ([1]; dose 8 μg/mL): 0.7023 ± 0.0347
- PI (%) ([1]; dose 8 μg/mL): 20.21%
- A570 nm/A630 nm ([1]; dose 16 μg/mL): 0.6556 ± 0.0292
- PI (%) ([1]; dose 16 μg/mL): 25.52%
- A570 nm/A630 nm ([1]; dose 32 μg/mL): 0.6113 ± 0.0279
- PI (%) ([1]; dose 32 μg/mL): 30.55%
- A570 nm/A630 nm ([1]; dose 64 μg/mL): 0.5498 ± 0.0374
- PI (%) ([1]; dose 64 μg/mL): 37.54%
- A570 nm/A630 nm ([1]; dose 128 μg/mL): 0.4898 ± 0.0289
- PI (%) ([1]; dose 128 μg/mL): 44.35%
- A570 nm/A630 nm ([1]; dose 256 μg/mL): 0.4497 ± 0.0316
- PI (%) ([1]; dose 256 μg/mL): 48.91%
- Nucleus number (nucleus count of vascular endothelial cells) ([2]; 100 μg intravitreal injection on day 7, counted on day 14, per section per eyeball): 7.238 ± 1.194
- nucleus counts of retinal vascular endothelial cells ([2]; intravitreal injection, dose of 100, day 14, oxygen model group 27.452±2.110): 7.238±1.194
- A570 nm/A630 nm (lung cancer cell A549; dose 1 μg/mL): 0.8885 ± 0.0374
- PI (%) (lung cancer cell A549; dose 1 μg/mL): 8.28%
- A570 nm/A630 nm (lung cancer cell A549; dose 2 μg/mL): 0.7933 ± 0.0253
- PI (%) (lung cancer cell A549; dose 2 μg/mL): 18.11%
- A570 nm/A630 nm (lung cancer cell A549; dose 4 μg/mL): 0.7005 ± 0.0396
- PI (%) (lung cancer cell A549; dose 4 μg/mL): 27.69%
- A570 nm/A630 nm (lung cancer cell A549; dose 8 μg/mL): 0.6325 ± 0.0215
- PI (%) (lung cancer cell A549; dose 8 μg/mL): 34.71%
- A570 nm/A630 nm (lung cancer cell A549; dose 16 μg/mL): 0.5923 ± 0.0192
- PI (%) (lung cancer cell A549; dose 16 μg/mL): 38.86%
- PI (%) (lung cancer cell A549; dose 16 μg/mL, listed as protein II): about 40%
- A570 nm/A630 nm (lung cancer cell A549; dose 32 μg/mL): 0.5006 ± 0.0347
- PI (%) (lung cancer cell A549; dose 32 μg/mL): 48.32%
- A570 nm/A630 nm (lung cancer cell A549; dose 64 μg/mL): 0.4106 ± 0.0286
- PI (%) (lung cancer cell A549; dose 64 μg/mL): 57.61%
- A570 nm/A630 nm (lung cancer cell A549; dose 128 μg/mL): 0.2008 ± 0.0147
- PI (%) (lung cancer cell A549; dose 128 μg/mL): 79.27%
- A570 nm/A630 nm (lung cancer cell A549; dose 256 μg/mL): 0.1165 ± 0.0159
- PI (%) (lung cancer cell A549; dose 256 μg/mL): 87.97%
